Experimental data published in publication PMC12871931 (2025).
Ends that are not written are not given here. * marks the point of attachment. 5‑TAMRA = 5-carboxytetramethylrhodamine, N-terminal label, CN(C)c1ccc2c(-c3ccc(C(=O)*)cc3C(=O)[O-])c3ccc(N(C)C)cc3[o+]c2c1

Key:
Experiment in all cases: FP
[1] = molecular target: importin α2 (IMPα2), Arabidopsis thaliana, recombinant (Arabidopsis thaliana, UniProt F4JL11 1-535)
[2] = molecular target: importin α1 (IMPα1), Arabidopsis thaliana, recombinant (Arabidopsis thaliana, UniProt Q96321 1-532)
[3] = molecular target: importin α3 (IMPα3), Arabidopsis thaliana, recombinant (Arabidopsis thaliana, UniProt O04294 1-531)
Chain of importin α3 (IMPα3), Arabidopsis thaliana, recombinant (O04294 whole entry): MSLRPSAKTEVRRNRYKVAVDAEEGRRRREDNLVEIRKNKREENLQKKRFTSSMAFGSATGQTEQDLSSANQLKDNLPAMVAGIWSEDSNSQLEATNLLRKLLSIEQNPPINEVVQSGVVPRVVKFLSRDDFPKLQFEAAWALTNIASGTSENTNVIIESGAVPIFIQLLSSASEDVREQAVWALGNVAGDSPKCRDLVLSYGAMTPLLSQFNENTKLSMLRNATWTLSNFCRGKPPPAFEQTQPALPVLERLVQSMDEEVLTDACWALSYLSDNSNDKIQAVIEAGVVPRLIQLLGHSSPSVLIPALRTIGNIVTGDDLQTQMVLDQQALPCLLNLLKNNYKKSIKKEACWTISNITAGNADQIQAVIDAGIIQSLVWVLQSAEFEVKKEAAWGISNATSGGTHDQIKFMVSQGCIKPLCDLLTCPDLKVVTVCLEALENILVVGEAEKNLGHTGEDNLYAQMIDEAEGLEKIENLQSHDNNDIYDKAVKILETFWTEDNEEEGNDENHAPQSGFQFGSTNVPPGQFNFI

Chain of importin α1 (IMPα1), Arabidopsis thaliana, recombinant (Q96321 whole entry): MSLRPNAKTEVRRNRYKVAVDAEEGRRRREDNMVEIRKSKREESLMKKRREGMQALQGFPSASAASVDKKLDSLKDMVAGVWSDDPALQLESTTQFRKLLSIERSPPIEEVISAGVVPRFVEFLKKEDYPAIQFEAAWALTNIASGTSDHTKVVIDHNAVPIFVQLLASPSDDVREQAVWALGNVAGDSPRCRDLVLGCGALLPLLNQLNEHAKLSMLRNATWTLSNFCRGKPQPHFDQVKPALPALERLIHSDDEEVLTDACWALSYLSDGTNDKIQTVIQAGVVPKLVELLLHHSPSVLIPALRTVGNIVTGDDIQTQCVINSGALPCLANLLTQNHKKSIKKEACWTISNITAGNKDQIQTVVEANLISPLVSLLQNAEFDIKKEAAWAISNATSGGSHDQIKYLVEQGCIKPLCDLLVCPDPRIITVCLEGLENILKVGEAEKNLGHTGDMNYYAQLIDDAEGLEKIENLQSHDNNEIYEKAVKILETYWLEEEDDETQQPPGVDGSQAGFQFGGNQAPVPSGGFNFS
Chain of importin α2 (IMPα2), Arabidopsis thaliana, recombinant (F4JL11 whole entry): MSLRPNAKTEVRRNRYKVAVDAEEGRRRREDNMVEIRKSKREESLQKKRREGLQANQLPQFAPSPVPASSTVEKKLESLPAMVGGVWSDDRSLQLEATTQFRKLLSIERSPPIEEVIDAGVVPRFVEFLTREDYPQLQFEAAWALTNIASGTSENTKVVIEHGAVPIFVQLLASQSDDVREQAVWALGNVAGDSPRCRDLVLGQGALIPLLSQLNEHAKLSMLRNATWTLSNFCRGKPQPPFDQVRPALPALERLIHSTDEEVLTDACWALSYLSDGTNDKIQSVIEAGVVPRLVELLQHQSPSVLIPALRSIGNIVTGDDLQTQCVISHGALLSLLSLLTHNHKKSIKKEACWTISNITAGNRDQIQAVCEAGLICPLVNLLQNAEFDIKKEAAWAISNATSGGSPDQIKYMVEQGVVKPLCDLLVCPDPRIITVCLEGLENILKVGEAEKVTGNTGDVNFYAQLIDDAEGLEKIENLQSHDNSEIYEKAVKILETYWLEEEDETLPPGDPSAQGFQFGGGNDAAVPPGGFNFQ

Binder: {5‑TAMRA}-LKRYKRRL [TAMRA‐NOP‐1 (EIN2 NLS peptide, N‐terminally labeled with 5‐TAMRA)]
- Kd [1]: 5.8 µM
- Kd [2]: 4.6 µM
- Kd [3]: 5.4 µM
